This data set concerns O=P(O)(O)OC[C@H]1O[C@@](CO)(O[C@H]2O[C@H](CO)[C@@H](O)[C@H](O)[C@H]2O)[C@@H](O)[C@@H]1O. Kind of data set: purified protein. In kind it is biochemical, Mediterraneibacter gnavus. The following applies: phosphorolysis, 100 mM sodium phosphate buffer as co-substrate, pH 6.0, 40 °C, 1.0-20 mM substrate.

As usually defined, the Km is the concentration of substrate that gives half-maximal velocity. For orientation: kcat means the number of substrate molecules converted per active site and unit of time at saturation. By kcat/Km is commonly meant the second-order rate constant that governs catalysis at low substrate concentration. For the substance “RgSPP (sucrose 6^F-phosphate phosphorylase; formerly SucP) (Mediterraneibacter gnavus)”, the Km was found to be 1700 µM, the kcat is 740 s⁻¹ and the kcat/Km stood at 435000 M⁻¹ s⁻¹.

Source of the values: article PMC6521584, “Sucrose 6^F-phosphate phosphorylase: a novel insight in the human gut microbiome” (Microbial Genomics, 2019).
